The results in this text go back to the Immune Epitope Database (IEDB).

The Kd is the equilibrium constant for the complex coming apart. Read a low Kd as higher affinity. In general, IC50 refers to the point on the concentration scale where inhibition reaches its midpoint.

In test [1] the target is HLA-A*02:16. Description: IEDB peptide-MHC binding, purified MHC/direct/fluorescence; filed as Kd, often an IC50 or EC50 that approximates it; ≥ and ≤ were set here for values at or beyond the usual limits of such assays.
Test [2] has as its target HLA-A*02:03. The description is as above.
Test [3] has as its target HLA-A*02:12. The test is described as above.
Test [4] addresses HLA-A*68:02. The description is as above.
The target of test [5] is HLA-A*02:19. Described as above.
The target in test [6] is HLA-C*12:03. Described as above. The following applies: source organism: Zaire ebolavirus.
Test [7] addresses HLA-A*03:01. Described as above.
Test [8] concerns the target HLA-B*18:01. Description: IEDB peptide-MHC binding, purified MHC/competitive/fluorescence; filed as Kd, often an IC50 or EC50 that approximates it; ≥ and ≤ were set here for values at or beyond the usual limits of such assays.
For test [9], the target named is HLA-A*26:01. The description is as above.
Test [10] concerns the target HLA-A*69:01. The description is as above.
Test [11] concerns the target HLA-A*02:01. The description is as above.
The target in test [12] is HLA-B*27:03. The test is described as above.
The target in test [13] is HLA-B*57:01. The test is described as above.
The target in test [14] is HLA-B*58:01. The test is described as above.
Test [15] has as its target HLA-B*39:01. Described as above.
For test [16], the target named is HLA-A*24:03. Description: IEDB peptide-MHC binding, purified MHC/direct/fluorescence; filed as Kd, often an IC50 or EC50 that approximates it; ≥ and ≤ were set here for values at or beyond the usual limits of such assays.
Test [17] deals with HLA-A*23:01. Described as above.
For test [18], the target named is HLA-A*02:01. Described as above. The following applies: source organism: Zaire ebolavirus.
Test [19] addresses HLA-A*29:02. The test is described as above.
For test [20], the target named is HLA-B*46:01. Nature of the test: IEDB peptide-MHC binding, purified MHC/competitive/fluorescence; filed as Kd, often an IC50 or EC50 that approximates it; ≥ and ≤ were set here for values at or beyond the usual limits of such assays.
Test [21] has as its target HLA-B*51:01. Described as above.
Test [22] addresses HLA-B*15:17. Described as above.
For test [23], the target named is HLA-B*15:01. The test is described as above.
The target of test [24] is HLA-A*02:01. Nature of the test: IEDB peptide-MHC binding, purified MHC/competitive/fluorescence; ≥ and ≤ were set here for values at or beyond the usual limits of such assays. Conditions: source organism: Sudan ebolavirus.
Test [25] concerns the target HLA-B*08:01. The test is described as above. The following applies: source organism: Sudan ebolavirus.
In test [26] the target is HLA-C*06:02. Nature of the test: IEDB peptide-MHC binding, purified MHC/direct/fluorescence; filed as Kd, often an IC50 or EC50 that approximates it; ≥ and ≤ were set here for values at or beyond the usual limits of such assays.
Test [27] deals with HLA-B*39:01. The test is described as above. Conditions: source organism: Influenza A virus (A/mallard/Norway/685/05(H9N2)).
In test [28] the target is HLA-A*69:01. Described as above. Conditions: source organism: Francisella tularensis subsp. holarctica LVS.
Test [29] addresses HLA-A*31:01. Description: IEDB peptide-MHC binding, purified MHC/competitive/fluorescence; filed as Kd, often an IC50 or EC50 that approximates it; ≥ and ≤ were set here for values at or beyond the usual limits of such assays. Conditions: source organism: Francisella tularensis subsp. tularensis FSC198.
The target of test [30] is HLA-A*24:03. The description is as above.
Test [31] addresses HLA-C*14:02. Nature of the test: IEDB peptide-MHC binding, purified MHC/direct/fluorescence; filed as Kd, often an IC50 or EC50 that approximates it; ≥ and ≤ were set here for values at or beyond the usual limits of such assays.
The target in test [32] is HLA-B*48:01. Described as above. The following applies: source organism: Mycobacterium tuberculosis str. Haarlem.
In test [33] the target is HLA-B*15:01. The description is as above.
The target in test [34] is HLA-B*35:01. Nature of the test: IEDB peptide-MHC binding, purified MHC/competitive/fluorescence; filed as Kd, often an IC50 or EC50 that approximates it; ≥ and ≤ were set here for values at or beyond the usual limits of such assays. The following applies: source organism: Mycobacterium tuberculosis H37Rv.
For test [35], the target named is HLA-A*02:11. Nature of the test: IEDB peptide-MHC binding, purified MHC/direct/fluorescence; filed as Kd, often an IC50 or EC50 that approximates it; ≥ and ≤ were set here for values at or beyond the usual limits of such assays. Conditions: source organism: Zaire ebolavirus.
Where [36] appears, read: source organism: Zaire ebolavirus.
Where [37] appears, read: source organism: Rickettsia felis URRWXCal2.
[38] abbreviates: source organism: Francisella tularensis subsp. tularensis FSC198.
The mark [39] stands for this setting: source organism: Limestone Canyon virus.
[40] abbreviates: source organism: Four Corners hantavirus.
Where [41] appears, read: source organism: Rickettsia sibirica 246.
[42] abbreviates: source organism: Araucaria virus.

In the case of IMYDHLPGF, the Kd is at least 20 µM in test [1] (setting [36]); at least 20 µM in test [2] (setting [36]); at least 20 µM in test [3] (setting [36]); at least 20 µM in test [4] (setting [36]); at least 20 µM in test [5] (setting [36]); 0.306 µM in test [6]. For the same sequence, the Kd in [7] (setting [36]), in test [8] (setting [36]), in test [9] (setting [36]), in [10] (setting [36]), in test [11] (setting [36]) and in [12] (setting [36]) was at least 20 µM throughout. The results for the Kd in test [13] (setting [36]), in test [14] (setting [36]) and in test [15] (setting [36]) were at least 20 µM, 0.0731 µM and at least 20 µM, respectively.

Consider GYTVARSQL, for which the figures for the Kd in [16] (setting [37]) and in test [17] (setting [37]) were 0.022 µM and 0.466 µM, respectively.

Regarding FLYDRLAST, the Kd in [18] is 0.0022 µM; in test [16] (setting [36]), at least 20 µM; in test [17] (setting [36]) it was at least 20 µM; in [7] (setting [36]) it was at least 20 µM; in test [19] (setting [36]), at least 20 µM; in test [8] (setting [36]), at least 20 µM. For the same sequence, the Kd in test [20] (setting [36]), in [9] (setting [36]), in test [10] (setting [36]), in test [12] (setting [36]), in test [21] (setting [36]) and in [13] (setting [36]) was at least 20 µM throughout. For the same sequence, the Kd in [22] (setting [36]) and in [23] (setting [36]) was at least 20 µM in each case. Further, the IC50 in test [24] came to 0.887 µM; in test [25] it was 40.6 µM.

In the case of HRTLLMNEL, the Kd in [26] (source organism: Influenza A virus (A/nt/60/1968(H3N2))) and in [27] was at least 20 µM throughout.

Regarding KYYIYRLYF, the Kd in [28] was at least 20 µM; in [26] (setting [38]), at least 20 µM; in test [29], at least 20 µM; in test [30] (setting [38]) it was 0.0008 µM.

Take KSAFYQSYL: the Kd in [1] (setting [39]), in test [3] (setting [39]), in [5] (setting [39]), in [7] (setting [39]), in test [19] (setting [39]) and in test [8] (setting [40]) was at least 20 µM each time. Also, the Kd is at least 20 µM in [20] (setting [40]); at least 20 µM in [9] (setting [40]); at least 20 µM in test [10] (setting [40]); at least 20 µM in test [12] (setting [40]); 0.0021 µM in test [14] (setting [40]); at least 20 µM in [15] (setting [40]). In [23] (setting [40]), the Kd was at least 20 µM.

MFSVYDYGF: the Kd in test [16] (setting [41]) and in test [17] (setting [41]) was 0.003 µM in each case.

On to AAAAFEAAL, for which the figures for the Kd in [31] (source organism: Burkholderia orbicola) and in test [32] were 0.166 µM and 0.175 µM, respectively.

As to STVADEIAF, the Kd in test [14] (source organism: Escherichia coli E22) turned out to be 1.78 µM.

Regarding LYVAGVPEL, the Kd in [1] (setting [42]), in test [2] (setting [42]), in [3] (setting [42]), in test [4] (setting [42]), in test [5] (setting [42]) and in test [7] (setting [42]) was at least 20 µM throughout. Moreover, the dissociation constant Kd in test [19] (setting [42]), in test [8] (setting [42]), in [20] (setting [42]), in [9] (setting [42]), in test [10] (setting [42]) and in test [11] (setting [42]) was at least 20 µM throughout. The Kd in [30] (setting [42]) was 0.0003 µM; in test [12] (setting [42]), at least 20 µM; in test [21] (setting [42]), at least 20 µM; in [13] (setting [42]), at least 20 µM; in test [22] (setting [42]), at least 20 µM; in test [15] (setting [42]) it was at least 20 µM.

Take AMAAAAAPY: the Kd in [31] (source organism: Mycobacterium tuberculosis H37Rv) stood at 0.094 µM; in test [33] (source organism: Mycobacterium tuberculosis variant bovis BCG str. Pasteur 1173P2), 0.294 µM; in test [34], 0.0083 µM.

For ISSGETRSF, the Kd in [1] (setting [36]), in [2] (setting [36]), in test [3] (setting [36]), in test [4] (setting [36]), in test [35] and in test [5] (setting [36]) was at least 20 µM throughout. For the same sequence, the Kd was at least 20 µM in [7] (setting [36]); at least 20 µM in test [19] (setting [36]); 3.6 µM in [33] (source organism: Nitrococcus mobilis Nb-231); at least 20 µM in [8] (setting [36]); at least 20 µM in test [20] (setting [36]); at least 20 µM in test [9] (setting [36]). Besides, the Kd in test [10] (setting [36]) was at least 20 µM; in [11] (setting [36]) it was at least 20 µM; in test [12] (setting [36]) it was at least 20 µM; in test [21] (setting [36]), at least 20 µM; in test [13] (setting [36]), at least 20 µM; in [14] (setting [36]) it was 0.351 µM. In addition, the Kd in test [15] (setting [36]) was at least 20 µM.
